From patent publication US20210024620A1

How the values were obtained:
[1] = target: FcRn immobilised on the FcRn affinity column (biotinylated cynoFcRn in one experiment, biotinylated hFcRn in another); assay: FcRn affinity chromatography, linear pH gradient; species of the immobilised FcRn not given
rat FcRn (rat) [2] = target: rat FcRn (rat) (UniProt P13599); assay: Biacore, pH 6.0, apparent KD
rat FcRn (rat) [3] = target: rat FcRn (rat) (UniProt P13599); assay: Biacore SPR, pH 6.0
rat FcRn (rat) [4] = target: rat FcRn (rat) (UniProt P13599); assay: Biacore SPR, pH 7.4, 1000 nM antibody
[5] = target: biotinylated human FcRn (human) (UniProt P55899); assay: Biacore SPR, pH 7.4, 1000 nM antibody
rat FcRn (rat) [6] = target: rat FcRn (rat) (UniProt P13599); assay: Biacore SPR, pH 7.4
[7] = target: biotinylated human FcRn (human) (UniProt P55899); assay: Biacore, pH 6.0, apparent KD
[8] = target: biotinylated human FcRn (human) (UniProt P55899); assay: Biacore SPR, pH 6.0
[9] = target: biotinylated human FcRn (human) (UniProt P55899); assay: Biacore SPR, pH 6.0; remark: listed apart in the source
[10] = target: biotinylated human FcRn (human) (UniProt P55899); assay: Biacore SPR, pH 7.4
[11] = target: biotinylated human FcRn (p51 subunit residues 24-297 with C-terminal Avi-tag; beta2-microglobulin residues 21-119) (human) (UniProt P55899); assay: Biacore; inverse ratio (RU at pH 7.4 over affinity at pH 6.0)
[12] = target: biotinylated human FcRn (p51 subunit residues 24-297 with C-terminal Avi-tag; beta2-microglobulin residues 21-119) (human) (UniProt P55899); assay: Biacore; affinity at pH 6.0 (M^-1) over steady state RU at pH 7.4
[13] = target: biotinylated human FcRn (p51 subunit residues 24-297 with C-terminal Avi-tag; beta2-microglobulin residues 21-119) (human) (UniProt P55899); assay: Biacore SPR, pH 7.4, steady state
[14] = target: biotinylated human FcRn (p51 subunit residues 24-297 with C-terminal Avi-tag; beta2-microglobulin residues 21-119) (human) (UniProt P55899); assay: Biacore SPR, pH 6.0
[15] = target: biotinylated human FcRn (human) (UniProt P55899); assay: Biacore, pH 6.0
[16] = target: biotinylated human FcRn (human) (UniProt P55899); assay: Biacore, biotin-captured hFcRn, pH 8.0
[17] = target: biotinylated human FcRn (human) (UniProt P55899); assay: Biacore, biotin-captured hFcRn, pH 7.4
[18] = target: biotinylated human FcRn (human) (UniProt P55899); assay: Biacore, biotin-captured hFcRn, pH 8.0, 1000 nM antibody
[19] = target: biotinylated cynomolgus FcRn (cynomolgus) (UniProt Q8SPV9); assay: Biacore, biotin-captured cFcRn, pH 7.4
[20] = target: biotinylated cynomolgus FcRn (cynomolgus) (UniProt Q8SPV9); assay: Biacore, biotin-captured cFcRn, pH 8.0, 1000 nM antibody
[21] = target: biotinylated cynomolgus FcRn (cynomolgus) (UniProt Q8SPV9); assay: Biacore, biotin-captured cFcRn, pH 7.4, 1000 nM antibody
[22] = target: biotinylated cynomolgus FcRn (cynomolgus) (UniProt Q8SPV9); assay: Biacore, biotin-captured cFcRn, pH 8.0
[23] = target: biotinylated human FcRn (human) (UniProt P55899); assay: Biacore, biotin-captured hFcRn, pH 7.4, 1000 nM antibody
[24] = target: biotinylated cynomolgus FcRn (cynomolgus) (UniProt Q8SPV9); assay: Biacore, biotin-captured cFcRn, pH 6.0
[25] = target: biotinylated cynomolgus FcRn (cynomolgus) (UniProt Q8SPV9); assay: Biacore, biotin-captured cFcRn, pH 9.0, 1000 nM antibody
[26] = target: biotinylated human FcRn (human) (UniProt P55899); assay: Biacore, biotin-captured hFcRn, pH 6.0

Sequence of rat FcRn (rat) (P13599 23-298 limits assumed, chain 1 of 2): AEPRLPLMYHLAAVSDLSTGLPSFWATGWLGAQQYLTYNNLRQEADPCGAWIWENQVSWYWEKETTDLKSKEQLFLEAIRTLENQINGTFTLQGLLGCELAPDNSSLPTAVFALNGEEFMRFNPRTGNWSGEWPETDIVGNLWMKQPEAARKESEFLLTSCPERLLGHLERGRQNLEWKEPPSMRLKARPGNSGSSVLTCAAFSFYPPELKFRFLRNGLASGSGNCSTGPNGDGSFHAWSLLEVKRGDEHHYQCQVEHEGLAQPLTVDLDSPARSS
Sequence of rat FcRn (rat) (P07151 21-119 limits assumed, chain 2 of 2, further chain): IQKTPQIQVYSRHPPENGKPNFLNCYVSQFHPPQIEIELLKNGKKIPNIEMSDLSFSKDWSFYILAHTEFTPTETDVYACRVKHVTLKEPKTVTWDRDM

Substance	FcRn affinity column elution pH [1]	Kd (rat FcRn (rat) [2])	Kd (rat FcRn (rat) [3])	Steady State RU (rat FcRn (rat) [4])	Steady State RU [5]	Steady State RU (rat FcRn (rat) [6])	Kd [9]	Steady State RU [10]	also measured
mAb1 E380C (antibody)	7.18 pH	6310 nM	6310 nM	27.7 RU	5.7 RU	–	–	–	–
mAb1 M252Y (antibody)	7.88 pH	25 nM	25 nM	57.7 RU	–	50.5 RU	3100 nM	–	Kd [7]: 3100 nM; Kd [8]: > 3000 nM
mAb1 METF (T256E/N434F) (antibody)	–	–	7.53 nM	–	–	59 RU	78.2 nM	23.3 RU	Ratio [11]: 1.82e-06; Ratio (pH 6.0/pH 7.4) [12]: 549000; Steady State Binding, pH 7.4 (RU) [13]: 23.3 RU; koff (rat FcRn (rat) [3]): 0.00081 s⁻¹; kon (rat FcRn (rat) [3]): 108000 M⁻¹ s⁻¹; Ka [14]: 1.28e+07 M⁻¹; koff [9]: 0.0419 s⁻¹; kon [9]: 536000 M⁻¹ s⁻¹
mAb1 MTQF (T307Q/N434F) (antibody)	–	–	3.89 nM	–	–	62.5 RU	42.9 nM	34.2 RU	Ratio (pH 6.0/pH 7.4) [11]: 1.47e-06; Ratio (pH 6.0/pH 7.4) [12]: 681000; Steady State Binding, pH 7.4 (RU) [13]: 34.2 RU; koff (rat FcRn (rat) [3]): 0.0004 s⁻¹; kon (rat FcRn (rat) [3]): 104000 M⁻¹ s⁻¹; Ka [14]: 2.33e+07 M⁻¹; koff [9]: 0.0246 s⁻¹; kon [9]: 574000 M⁻¹ s⁻¹
mAb1 N434P (antibody)	7.56 pH	194 nM	194 nM	4.3 RU	3.5 RU	–	–	–	–
mAb1 T256D (antibody)	7.82 pH	86 nM	86 nM	30.4 RU	–	23.2 RU	6700 nM	–	Kd [7]: 6700 nM; Kd [8]: > 3000 nM
mAb1 T256E (antibody)	7.63 pH	113 nM	113 nM	23 RU	4.8 RU	17 RU	–	4.5 RU	Kd [8]: > 3000 nM
mAb1 T307F (antibody)	7.61 pH	131 nM	131 nM	21.9 RU	4.9 RU	–	–	–	–
mAb1 Y436H (antibody)	7.33 pH	131 nM	131 nM	16.3 RU	3.6 RU	–	–	–	–
mAb1 Y436N (antibody)	7.22 pH	233 nM	233 nM	17.4 RU	3.6 RU	–	–	–	–
mAb1 Y436W (antibody)	7.39 pH	1140 nM	1140 nM	10.3 RU	3.7 RU	–	–	–	–
mAb1 YEWY (M252Y/T256E/T307W/N434Y) (antibody)	–	–	–	–	–	–	–	–	Kd [16]: 1900 nM; Kd [17]: 61 nM; Steady State RU [18]: 245 RU; Kd [19]: 63 nM; Steady State RU [20]: 303 RU; Steady State RU [21]: 162 RU; Kd [22]: 1300 nM; Steady State RU [23]: 141 RU; Kd [24]: 6.1 nM; Steady State RU [25]: 5.4 RU
mAb1 YTQN (M252Y/T307Q) (antibody)	–	–	4.11 nM	–	–	49.2 RU	278 nM	10.6 RU	Ratio (pH 6.0/pH 7.4) [11]: 2.94e-06; Ratio (pH 6.0/pH 7.4) [12]: 340000; Steady State Binding, pH 7.4 (RU) [13]: 10.6 RU; koff (rat FcRn (rat) [3]): 0.00105 s⁻¹; kon (rat FcRn (rat) [3]): 255000 M⁻¹ s⁻¹; Ka [14]: 3.6e+06 M⁻¹; koff [9]: 0.096 s⁻¹; kon [9]: 345000 M⁻¹ s⁻¹
mAb1 YTTF (M252Y/N434F) (antibody)	–	–	0.29 nM	–	–	79.3 RU	18 nM	43.8 RU	Ratio [11]: 7.88e-07; Ratio (pH 6.0/pH 7.4) [12]: 1.27e+06; Steady State Binding, pH 7.4 (RU) [13]: 43.8 RU; koff (rat FcRn (rat) [3]): 0.00012 s⁻¹; kon (rat FcRn (rat) [3]): 403000 M⁻¹ s⁻¹; Ka [14]: 5.56e+07 M⁻¹; koff [9]: 0.023 s⁻¹; kon [9]: 1.27e+06 M⁻¹ s⁻¹
mAb1 wildtype (WT) human IgG1 antibody	7.37 pH	–	207 nM	12.2 RU	4.3 RU	13 RU	–	4.2 RU	Steady State RU [18]: 0.2 RU; Kd [26]: 1300 nM; Steady State RU [20]: 1.4 RU; Kd [8]: 2380 nM; Steady State RU [21]: 1.5 RU; Steady State RU [23]: 0.2 RU; Kd [24]: 660 nM

Further lines, with some results ahead:

FcRn affinity column elution pH [1]	Kd (rat FcRn (rat) [2])	Kd (rat FcRn (rat) [3])	Steady State RU (rat FcRn (rat) [4])	Steady State RU [5]	Steady State RU (rat FcRn (rat) [6])	Kd [9]	Steady State RU [10]	Substance	also measured
7.33 pH	149 nM	149 nM	21.9 RU	3.8 RU	–	–	–	mAb1 K288D (antibody)	–
7.39 pH	190 nM	190 nM	20.4 RU	–	–	–	–	mAb1 K288N (antibody)	–
–	–	4.11 nM	–	–	63 RU	32.4 nM	38.4 RU	mAb1 MTQY (T307Q/N434Y) (antibody)	Ratio (pH 6.0/pH 7.4) [11]: 1.24e-06; Ratio (pH 6.0/pH 7.4) [12]: 805000; Steady State Binding, pH 7.4 (RU) [13]: 38.4 RU; koff (rat FcRn (rat) [3]): 0.00048 s⁻¹; kon (rat FcRn (rat) [3]): 116000 M⁻¹ s⁻¹; Ka [14]: 3.09e+07 M⁻¹; koff [9]: 0.0202 s⁻¹; kon [9]: 622000 M⁻¹ s⁻¹
–	–	0.62 nM	–	–	69.6 RU	21.5 nM	37.2 RU	mAb1 MTWY (T307W/N434Y) (antibody)	Ratio (pH 6.0/pH 7.4) [11]: 8e-07; Ratio (pH 6.0/pH 7.4) [12]: 1.25e+06; Steady State Binding, pH 7.4 (RU) [13]: 37.2 RU; koff (rat FcRn (rat) [3]): 0.0003 s⁻¹; kon (rat FcRn (rat) [3]): 480000 M⁻¹ s⁻¹; Ka [14]: 4.65e+07 M⁻¹; koff [9]: 0.0317 s⁻¹; kon [9]: 1.48e+06 M⁻¹ s⁻¹
–	–	–	–	20.1 RU	–	165 nM	22.2 RU	mAb1 N434F (antibody; other documents disagree on this pair)	Kd [7]: 165 nM
–	–	–	–	22.6 RU	–	137 nM	25.5 RU	mAb1 N434Y (antibody; other documents disagree on this pair)	Kd [7]: 137 nM; koff [15]: 0.05 s⁻¹; kon [15]: 360000 M⁻¹ s⁻¹; koff [8]: 0.05 s⁻¹; kon [8]: 360000 M⁻¹ s⁻¹; koff [9]: 0.052 s⁻¹; kon [9]: 359000 M⁻¹ s⁻¹
7.61 pH	132 nM	132 nM	23.1 RU	5.2 RU	–	–	–	mAb1 T307A (antibody)	–
7.4 pH	279 nM	279 nM	15.3 RU	4.4 RU	–	–	–	mAb1 T307M (antibody)	–
7.86 pH	58 nM	58 nM	24.3 RU	6.4 RU	31.3 RU	5720 nM	6.6 RU	mAb1 T307Q (antibody)	Kd [7]: 5720 nM; Kd [8]: > 3000 nM
7.75 pH	111 nM	111 nM	19.2 RU	–	21.9 RU	8740 nM	–	mAb1 T307W (antibody)	Kd [7]: 8740 nM; Kd [8]: > 3000 nM
–	–	0.26 nM	–	–	67.9 RU	8.32 nM	54.1 RU	mAb1 YTTY (M252Y/N434Y) (antibody)	Kd [16]: 3300 nM; Kd [17]: 65 nM; Steady State RU [18]: 188 RU; Kd [19]: 83 nM; Steady State RU [20]: 238 RU; Steady State Binding, pH 7.4 (RU) [13]: 54.1 RU; Steady State RU [21]: 147 RU; Kd [22]: 1300 nM; Ka [14]: 1.2e+08 M⁻¹; Steady State RU [23]: 125 RU; Kd [24]: 20 nM; Steady State RU [25]: 1 RU
